Series [1] concerns the target HIV-1 Rev (Human immunodeficiency virus 1) (UniProt P04618). The experiment in a line: competition. The note with it: D1/2 vs labelled RRE; 17 nM rev.
For series [2] the target is unchanged. The experiment in a line: filter.

As for R7 full-length RRE transcript (238 nt), the IC50 (in general, the concentration that gives 50% inhibition) in series [1] stood at 2 nM. In addition, the Kd – broadly, the concentration at which binding is half-saturated – in series [2] (50% RNA bound at 10 nM rev, 43 mM Tris pH 8.0, 50 mM KCl, 4 C) is 3 nM; in series [2] (Scatchard high-affinity site, 50 mM KCl), 2 nM; in series [2] (Scatchard high-affinity site, 200 mM KCl), 4 nM.

These data come from patent publication US6153382.
